In the supplement of paper PMC9112550, “Optimization of the antimicrobial peptide Bac7 by deep mutational scanning” (BMC Biology, 2022):
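Note: peptides expressed intracellularly from a pBAD plasmid library in pooled LB shake-flask culture, induced with 0.3% L-arabinose, DNA abundance read by NGS, three biological replicates, DESeq2 with apeglm shrinkage.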

The sequences below were run on Escherichia coli TOP10 (assay: shrunken log2 fold change of peptide-encoding DNA abundance (4.5 h post-induction vs induction); higher = less antimicrobial activity (less host growth inhibition)). Details: time post-induction: 4.5 h; library: site-saturation at positions 5, 18, 19, 20.
With RRIRARPPRLPRPRPRPNLAPRP the “shrunken log2 fold change” value was -0.179.
For RRIRCRPPRLPRPRPRPWFMPRP, the “shrunken log2 fold change” value was -0.776.
RRIRMRPPRLPRPRPRPILKPRP was tested, and the “shrunken log2 fold change” value was -0.206.
With RRIRWRPPRLPRPRPRPCADPRP the “shrunken log2 fold change” value was 0.579.
RRIRRRPPRLPRPRPRPVDLPRP was tested, and the “shrunken log2 fold change” value was 0.332.
In the case of RRIRMRPPRLPRPRPRPNSDPRP, the “shrunken log2 fold change” value was 0.0685.
In the case of RRIRGRPPRLPRPRPRPLDKPRP, the “shrunken log2 fold change” value was 0.401.
RRIRTRPPRLPRPRPRPKFTPRP was tested, and the “shrunken log2 fold change” value was -0.0912.
With RRIRVRPPRLPRPRPRPDPPPRP the “shrunken log2 fold change” value was 1.27.
For RRIRERPPRLPRPRPRPKQLPRP, the “shrunken log2 fold change” value was 0.123.
RRIRVRPPRLPRPRPRPKEDPRP was tested, and the “shrunken log2 fold change” value was 0.0522.
RRIRHRPPRLPRPRPRPVGIPRP was tested, and the “shrunken log2 fold change” value was -0.294.
In the case of RRIRDRPPRLPRPRPRPRKIPRP, the “shrunken log2 fold change” value was 0.0843.
For RRIRRRPPRLPRPRPRPFEVPRP, the “shrunken log2 fold change” value was 0.0871.
RRIRGRPPRLPRPRPRPGRHPRP was tested, and the “shrunken log2 fold change” value was 0.314.
In the case of RRIRLRPPRLPRPRPRPFIRPRP, the “shrunken log2 fold change” value was -0.245.
With RRIRMRPPRLPRPRPRPRMQPRP the “shrunken log2 fold change” value was 0.598.
RRIRVRPPRLPRPRPRPHHLPRP was tested, and the “shrunken log2 fold change” value was -0.24.
In the case of RRIRSRPPRLPRPRPRPEQCPRP, the “shrunken log2 fold change” value was -0.00373.
RRIRMRPPRLPRPRPRPRWMPRP was tested, and the “shrunken log2 fold change” value was 0.315.
With RRIRMRPPRLPRPRPRPKFCPRP the “shrunken log2 fold change” value was 0.0393.
With RRIRRRPPRLPRPRPRPWRIPRP the “shrunken log2 fold change” value was 0.0818.
RRIRWRPPRLPRPRPRPGCIPRP was tested, and the “shrunken log2 fold change” value was 0.293.
RRIRARPPRLPRPRPRPKLCPRP was tested, and the “shrunken log2 fold change” value was 0.225.
With RRIRNRPPRLPRPRPRPRDVPRP the “shrunken log2 fold change” value was 0.0624.
For RRIRTRPPRLPRPRPRPVMWPRP, the “shrunken log2 fold change” value was -0.11.
RRIRIRPPRLPRPRPRPPPPPRP was tested, and the “shrunken log2 fold change” value was 0.714.
With RRIRRRPPRLPRPRPRPMAKPRP the “shrunken log2 fold change” value was 0.315.
For RRIRLRPPRLPRPRPRPLFNPRP, the “shrunken log2 fold change” value was -0.468.
RRIRVRPPRLPRPRPRPEGMPRP was tested, and the “shrunken log2 fold change” value was 0.326.
In the case of RRIRRRPPRLPRPRPRPGQTPRP, the “shrunken log2 fold change” value was 0.0182.
With RRIRFRPPRLPRPRPRPAIRPRP the “shrunken log2 fold change” value was -0.32.
RRIRYRPPRLPRPRPRPNMFPRP was tested, and the “shrunken log2 fold change” value was -0.186.
With RRIRARPPRLPRPRPRPMKPPRP the “shrunken log2 fold change” value was 0.101.
With RRIRKRPPRLPRPRPRPRRAPRP the “shrunken log2 fold change” value was 0.9.
With RRIRFRPPRLPRPRPRPYLNPRP the “shrunken log2 fold change” value was -0.454.
With RRIRPRPPRLPRPRPRPQAMPRP the “shrunken log2 fold change” value was 0.132.
With RRIRERPPRLPRPRPRPTINPRP the “shrunken log2 fold change” value was -0.399.
RRIRERPPRLPRPRPRPLNSPRP was tested, and the “shrunken log2 fold change” value was -0.432.
In the case of RRIRNRPPRLPRPRPRPQFAPRP, the “shrunken log2 fold change” value was -0.0842.
RRIRTRPPRLPRPRPRPRCDPRP was tested, and the “shrunken log2 fold change” value was 0.13.
In the case of RRIRERPPRLPRPRPRPKHDPRP, the “shrunken log2 fold change” value was -0.441.
In the case of RRIRARPPRLPRPRPRPGTHPRP, the “shrunken log2 fold change” value was 0.173.
For RRIRSRPPRLPRPRPRPCEKPRP, the “shrunken log2 fold change” value was -0.475.
For RRIRQRPPRLPRPRPRPESSPRP, the “shrunken log2 fold change” value was -0.0458.
With RRIRFRPPRLPRPRPRPINHPRP the “shrunken log2 fold change” value was -0.511.
In the case of RRIRARPPRLPRPRPRPSRCPRP, the “shrunken log2 fold change” value was 0.228.
With RRIRPRPPRLPRPRPRPEIAPRP the “shrunken log2 fold change” value was 0.189.
RRIRGRPPRLPRPRPRPFYYPRP was tested, and the “shrunken log2 fold change” value was 0.07.
In the case of RRIRDRPPRLPRPRPRPRIEPRP, the “shrunken log2 fold change” value was 0.119.
RRIRKRPPRLPRPRPRPDGFPRP was tested, and the “shrunken log2 fold change” value was 0.0522.
For RRIRNRPPRLPRPRPRPGSYPRP, the “shrunken log2 fold change” value was -0.442.
In the case of RRIRCRPPRLPRPRPRPPNWPRP, the “shrunken log2 fold change” value was 1.17.
In the case of RRIRGRPPRLPRPRPRPAFNPRP, the “shrunken log2 fold change” value was 0.2.
RRIRNRPPRLPRPRPRPLNAPRP was tested, and the “shrunken log2 fold change” value was -0.662.
With RRIRKRPPRLPRPRPRPYCDPRP the “shrunken log2 fold change” value was 0.00748.
In the case of RRIRWRPPRLPRPRPRPYGKPRP, the “shrunken log2 fold change” value was 0.027.
For RRIRLRPPRLPRPRPRPTYGPRP, the “shrunken log2 fold change” value was -0.0237.
RRIRGRPPRLPRPRPRPGYTPRP was tested, and the “shrunken log2 fold change” value was -0.0605.
With RRIRKRPPRLPRPRPRPSKGPRP the “shrunken log2 fold change” value was -0.0301.
For RRIRMRPPRLPRPRPRPFCGPRP, the “shrunken log2 fold change” value was -0.0687.
With RRIRQRPPRLPRPRPRPMKFPRP the “shrunken log2 fold change” value was -0.21.
With RRIRMRPPRLPRPRPRPINDPRP the “shrunken log2 fold change” value was -0.401.
RRIRSRPPRLPRPRPRPFSTPRP was tested, and the “shrunken log2 fold change” value was -0.372.
With RRIRNRPPRLPRPRPRPNMKPRP the “shrunken log2 fold change” value was -0.48.
With RRIRQRPPRLPRPRPRPDSTPRP the “shrunken log2 fold change” value was 0.139.
In the case of RRIRNRPPRLPRPRPRPTANPRP, the “shrunken log2 fold change” value was 0.0124.
With RRIRIRPPRLPRPRPRPPGQPRP the “shrunken log2 fold change” value was -0.125.
With RRIRFRPPRLPRPRPRPSMKPRP the “shrunken log2 fold change” value was -0.753.
In the case of RRIRWRPPRLPRPRPRPALYPRP, the “shrunken log2 fold change” value was 0.232.
RRIRQRPPRLPRPRPRPQRNPRP was tested, and the “shrunken log2 fold change” value was -0.23.
With RRIRVRPPRLPRPRPRPIAQPRP the “shrunken log2 fold change” value was -0.061.
With RRIRTRPPRLPRPRPRPNYTPRP the “shrunken log2 fold change” value was -0.753.
With RRIRIRPPRLPRPRPRPRISPRP the “shrunken log2 fold change” value was -0.127.
With RRIRFRPPRLPRPRPRPVFKPRP the “shrunken log2 fold change” value was -0.57.
In the case of RRIRWRPPRLPRPRPRPAEIPRP, the “shrunken log2 fold change” value was 0.107.
In the case of RRIRRRPPRLPRPRPRPYFKPRP, the “shrunken log2 fold change” value was -0.572.
With RRIRGRPPRLPRPRPRPIGIPRP the “shrunken log2 fold change” value was -0.159.
With RRIRIRPPRLPRPRPRPDLYPRP the “shrunken log2 fold change” value was -0.408.
RRIRFRPPRLPRPRPRPQFNPRP was tested, and the “shrunken log2 fold change” value was -0.628.
With RRIRTRPPRLPRPRPRPGDMPRP the “shrunken log2 fold change” value was 1.73.
In the case of RRIRNRPPRLPRPRPRPPSNPRP, the “shrunken log2 fold change” value was -0.135.
For RRIRHRPPRLPRPRPRPKEQPRP, the “shrunken log2 fold change” value was -0.00965.
With RRIRIRPPRLPRPRPRPFVMPRP the “shrunken log2 fold change” value was -0.275.
For RRIRDRPPRLPRPRPRPDDPPRP, the “shrunken log2 fold change” value was -0.00152.
For RRIRQRPPRLPRPRPRPSRFPRP, the “shrunken log2 fold change” value was 3.97.
For RRIRLRPPRLPRPRPRPCVYPRP, the “shrunken log2 fold change” value was -0.352.
For RRIRGRPPRLPRPRPRPAGNPRP, the “shrunken log2 fold change” value was 0.693.
RRIRQRPPRLPRPRPRPPDGPRP was tested, and the “shrunken log2 fold change” value was 0.351.
With RRIRFRPPRLPRPRPRPNQSPRP the “shrunken log2 fold change” value was -0.32.
For RRIRRRPPRLPRPRPRPKHMPRP, the “shrunken log2 fold change” value was 0.932.
In the case of RRIRQRPPRLPRPRPRPENLPRP, the “shrunken log2 fold change” value was -0.0164.
With RRIRRRPPRLPRPRPRPACNPRP the “shrunken log2 fold change” value was 0.654.
For RRIRHRPPRLPRPRPRPANRPRP, the “shrunken log2 fold change” value was -0.129.
With RRIRERPPRLPRPRPRPLPIPRP the “shrunken log2 fold change” value was -0.0301.
With RRIRIRPPRLPRPRPRPEFQPRP the “shrunken log2 fold change” value was -0.129.
RRIRLRPPRLPRPRPRPVCIPRP was tested, and the “shrunken log2 fold change” value was -0.498.
With RRIRRRPPRLPRPRPRPHYNPRP the “shrunken log2 fold change” value was -0.202.
In the case of RRIRARPPRLPRPRPRPVGAPRP, the “shrunken log2 fold change” value was 0.731.
For RRIRLRPPRLPRPRPRPITMPRP, the “shrunken log2 fold change” value was -0.168.
In the case of RRIRYRPPRLPRPRPRPETWPRP, the “shrunken log2 fold change” value was 0.093.
In the case of RRIRPRPPRLPRPRPRPCMCPRP, the “shrunken log2 fold change” value was -0.0305.
With RRIRHRPPRLPRPRPRPPAPPRP the “shrunken log2 fold change” value was 0.466.
With RRIRKRPPRLPRPRPRPYYWPRP the “shrunken log2 fold change” value was -0.281.
With RRIRRRPPRLPRPRPRPDHSPRP the “shrunken log2 fold change” value was 0.0322.
With RRIRSRPPRLPRPRPRPPTRPRP the “shrunken log2 fold change” value was 0.651.
With RRIRYRPPRLPRPRPRPDKYPRP the “shrunken log2 fold change” value was 0.0363.
For RRIRIRPPRLPRPRPRPWADPRP, the “shrunken log2 fold change” value was -0.435.
RRIRSRPPRLPRPRPRPTHTPRP was tested, and the “shrunken log2 fold change” value was 0.106.
